Results as given in publication doi:10.1101/2021.04.12.439405 (bioRxiv, 2021).

Molecular target: T1, MukB^KRK (K1114E, R1122E and K1125E) (E. coli, UniProt P22523 1-1486, K1114E | R1122E | K1125E)
T1 sequence (looked up): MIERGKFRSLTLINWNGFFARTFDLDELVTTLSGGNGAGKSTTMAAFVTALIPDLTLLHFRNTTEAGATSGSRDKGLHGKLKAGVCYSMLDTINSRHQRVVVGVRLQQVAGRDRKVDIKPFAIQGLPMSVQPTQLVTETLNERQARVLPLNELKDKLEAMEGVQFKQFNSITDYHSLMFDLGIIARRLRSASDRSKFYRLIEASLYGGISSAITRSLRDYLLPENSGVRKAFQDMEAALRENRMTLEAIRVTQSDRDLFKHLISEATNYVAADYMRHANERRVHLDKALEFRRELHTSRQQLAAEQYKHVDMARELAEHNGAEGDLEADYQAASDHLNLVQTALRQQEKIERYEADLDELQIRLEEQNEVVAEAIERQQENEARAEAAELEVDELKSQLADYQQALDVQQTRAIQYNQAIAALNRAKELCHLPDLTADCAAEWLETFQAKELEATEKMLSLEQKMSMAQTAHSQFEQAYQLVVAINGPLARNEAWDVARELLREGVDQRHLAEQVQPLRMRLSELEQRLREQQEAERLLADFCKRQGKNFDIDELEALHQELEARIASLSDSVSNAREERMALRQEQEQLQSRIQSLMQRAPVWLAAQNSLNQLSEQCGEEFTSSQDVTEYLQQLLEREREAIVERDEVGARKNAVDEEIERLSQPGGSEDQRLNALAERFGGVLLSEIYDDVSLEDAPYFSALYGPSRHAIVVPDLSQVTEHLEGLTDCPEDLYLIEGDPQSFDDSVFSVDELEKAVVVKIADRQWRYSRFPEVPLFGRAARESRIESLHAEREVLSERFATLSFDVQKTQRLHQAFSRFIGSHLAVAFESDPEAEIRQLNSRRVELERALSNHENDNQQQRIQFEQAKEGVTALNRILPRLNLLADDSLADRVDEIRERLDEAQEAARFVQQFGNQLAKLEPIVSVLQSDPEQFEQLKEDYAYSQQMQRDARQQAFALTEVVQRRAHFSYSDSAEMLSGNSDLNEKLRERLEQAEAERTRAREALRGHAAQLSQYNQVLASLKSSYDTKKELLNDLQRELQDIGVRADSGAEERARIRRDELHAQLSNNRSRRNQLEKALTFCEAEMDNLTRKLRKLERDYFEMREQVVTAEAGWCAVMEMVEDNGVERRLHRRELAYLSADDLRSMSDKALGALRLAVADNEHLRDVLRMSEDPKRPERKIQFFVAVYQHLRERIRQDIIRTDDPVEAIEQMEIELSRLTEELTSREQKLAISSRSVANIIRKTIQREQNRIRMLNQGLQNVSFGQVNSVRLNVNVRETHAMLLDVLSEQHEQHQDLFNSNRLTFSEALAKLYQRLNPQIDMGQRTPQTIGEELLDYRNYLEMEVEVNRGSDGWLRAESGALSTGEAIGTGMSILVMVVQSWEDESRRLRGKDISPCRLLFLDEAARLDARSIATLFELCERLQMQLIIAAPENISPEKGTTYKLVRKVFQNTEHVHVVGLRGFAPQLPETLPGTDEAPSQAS
Test: native gel or EMSA

- binding result: binds
B1: His-MukF (natural protein, E. coli, UniProt P60293 1-440, looked up)
chain: MSEFSQTVPELVAWARKNDFSISLPVDRLSFLLAVATLNGERLDGEMSEGELVDAFRHVSDAFEQTSETIGVRANNAINDMVRQRLLNRFTSEQAEGNAIYRLTPLGIGITDYYIRQREFSTLRLSMQLSIVAGELKRAADAAEEGGDEFHWHRNVYAPLKYSVAEIFDSIDLTQRLMDEQQQQVKDDIAQLLNKDWRAAISSCELLLSETSGTLRELQDTLEAAGDKLQANLLRIQDATMTHDDLHFVDRLVFDLQSKLDRIISWGQQSIDLWIGYDRHVHKFIRTAIDMDKNRVFAQRLRQSVQTYFDEPWALTYANADRLLDMRDEEMALRDEEVTGELPEDLEYEEFNEIREQLAAIIEEQLAVYKTRQVPLDLGLVVREYLSQYPRARHFDVARIVIDQAVRLGVAQADFTGLPAKWQPINDYGAKVQAHVIDKY
